Results reported in patent publication US20240368233A1 (University of Washington, published 2024).

Columns and labels:
DFB0 = target: T1, DFB0; assay: SEC of mixed components; trimer listed in Table 6
T1 construct: Bivalent connector
T1 chain: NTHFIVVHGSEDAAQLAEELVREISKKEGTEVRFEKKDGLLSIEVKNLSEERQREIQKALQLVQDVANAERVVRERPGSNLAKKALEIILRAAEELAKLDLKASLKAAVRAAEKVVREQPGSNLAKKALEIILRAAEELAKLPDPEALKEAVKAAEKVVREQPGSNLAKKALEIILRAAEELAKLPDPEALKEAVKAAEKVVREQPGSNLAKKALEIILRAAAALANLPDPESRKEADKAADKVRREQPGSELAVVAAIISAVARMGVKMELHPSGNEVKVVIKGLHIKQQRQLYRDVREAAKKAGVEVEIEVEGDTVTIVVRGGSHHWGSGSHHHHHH

DFB-1 = target: T2, DFB-1; assay: SEC of mixed components; trimer listed in Table 6
T2 construct: Bivalent connector
T2 chain: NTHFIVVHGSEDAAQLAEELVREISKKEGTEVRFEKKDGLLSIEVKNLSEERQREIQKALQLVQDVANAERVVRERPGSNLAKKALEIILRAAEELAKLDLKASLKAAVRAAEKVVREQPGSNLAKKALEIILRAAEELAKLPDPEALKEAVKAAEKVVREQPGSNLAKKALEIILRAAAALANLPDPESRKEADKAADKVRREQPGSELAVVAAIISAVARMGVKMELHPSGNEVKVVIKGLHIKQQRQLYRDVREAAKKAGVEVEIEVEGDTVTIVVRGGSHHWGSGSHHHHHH

TF10 = target: T3, TF10; assay: SEC (A230) of A---, -BCD and ABCD and negative-stain EM; components named in the legend of FIG. 17A, which paragraph 104 ties to FIG. 4A
T3 construct: Trivalent connector
T3 chain: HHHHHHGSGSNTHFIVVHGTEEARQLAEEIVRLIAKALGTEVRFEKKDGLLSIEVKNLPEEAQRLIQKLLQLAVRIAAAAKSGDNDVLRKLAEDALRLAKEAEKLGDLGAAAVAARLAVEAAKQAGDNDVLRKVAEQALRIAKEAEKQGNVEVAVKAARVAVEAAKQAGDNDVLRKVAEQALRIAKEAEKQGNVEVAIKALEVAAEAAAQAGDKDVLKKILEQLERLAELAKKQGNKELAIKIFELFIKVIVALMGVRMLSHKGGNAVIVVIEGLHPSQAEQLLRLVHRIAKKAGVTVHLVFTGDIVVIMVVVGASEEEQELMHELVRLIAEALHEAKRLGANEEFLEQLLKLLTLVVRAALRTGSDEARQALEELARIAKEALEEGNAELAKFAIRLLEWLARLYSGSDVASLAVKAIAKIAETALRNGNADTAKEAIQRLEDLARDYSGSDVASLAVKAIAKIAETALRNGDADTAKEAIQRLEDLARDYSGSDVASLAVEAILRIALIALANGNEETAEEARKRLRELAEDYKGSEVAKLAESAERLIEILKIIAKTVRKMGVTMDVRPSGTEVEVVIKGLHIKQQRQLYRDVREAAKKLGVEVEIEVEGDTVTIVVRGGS
Experimental: Complexes and individual components were diluted in 20 mM Tris pH 8.0, 100 mM NaCl. After o/n equilibration of the mixtures at room temperature or 4 degrees C., 500 ul of sample was injected onto a Superdex™ 200 10/300 increase GL (dimers, linear assemblies) or Superose™ 6 increase 10/300 GL (symmetric assemblies) (all columns from GE healthcare) using the absorbance at 230 nm or 473 nm (for GFP tagged components) as read-out. Dimers were mixed at monomer concentrations of 5 μM or higher. Trimer and ABCD tetramer mixtures contained 5 μM of the bivalent connector, and 7.5 μM of each terminal cap (lower absolute concentrations with the same ratios were used for some trimers). ABCA tetramer mixtures contained 5 μM per bivalent connector and 15 μM terminal cap. The hexamer mixture contained 3 μM of components C and D, 3.6 μM of B and E, and 4.4 μM of A and F. The branched assembly shown in FIG. 4A contained 2.8 μM of the trivalent connector and 4 μM of each cap. For the exchange experiment shown in FIG. 5A, the ABC trimer was preincubated at concentrations of 6 μM B and 9 μM each of A and C. C′ was then added to reach a final concentration of 2 μM B, 3 μM each of A and C, and 6 μM C′.
SEC peak fractions were concentrated prior to negative stain EM screening. Samples were then immediately diluted 5 to 150 times in TBS buffer (25 mM Tris pH 8.0, 25 mM NaCl) depending on sample concentration. A final volume of 5 μL was applied to negatively glow discharged, carbon-coated 400-mesh copper grids (01844-F, TedPella, Inc.), then washed with Milli-Q™ Water and stained using 0.75% uranyl formate as previously described (53). Air-dried grids were imaged on a FEI Talos L120C TEM (FEI Thermo Scientific, Hillsboro, OR) equipped with a 4K×4K Gatan OneView™ camera at a magnification of 57,000× and pixel size of 2.51. Micrographs were imported into CisTEM software or cryoSPARC™ software and a circular blob picker was used to select particles which were then subjected to 2D classification. […]

TF3 = target: T4, TF3; assay: SEC of the trivalent connector TF3, its three caps and the full mixture, with SDS-PAGE of the fractions; components named in the legend
T4 construct: Trivalent connector
T4 chain: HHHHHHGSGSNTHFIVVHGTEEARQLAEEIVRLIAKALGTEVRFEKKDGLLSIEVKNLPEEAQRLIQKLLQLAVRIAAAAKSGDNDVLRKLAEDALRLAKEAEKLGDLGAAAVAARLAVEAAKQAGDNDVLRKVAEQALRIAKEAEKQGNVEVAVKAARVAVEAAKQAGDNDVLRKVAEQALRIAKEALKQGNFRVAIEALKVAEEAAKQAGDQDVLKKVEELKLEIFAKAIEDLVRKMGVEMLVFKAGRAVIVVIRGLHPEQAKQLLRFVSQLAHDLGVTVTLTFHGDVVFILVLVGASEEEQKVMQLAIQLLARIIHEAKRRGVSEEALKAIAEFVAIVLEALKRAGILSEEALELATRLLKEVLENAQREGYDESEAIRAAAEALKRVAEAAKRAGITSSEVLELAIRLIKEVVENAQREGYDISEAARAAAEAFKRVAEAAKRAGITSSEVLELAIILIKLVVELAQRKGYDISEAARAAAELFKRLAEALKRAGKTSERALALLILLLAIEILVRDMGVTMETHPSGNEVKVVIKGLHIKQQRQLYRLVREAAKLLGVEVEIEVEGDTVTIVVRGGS

Measured: binding result

B1: 101B62 (designed binder)
chain: HHHHHHGSGLNDIFEAQKIEWHEAENLYFQSGSNDEKRKRAEKALQRAQEAEKKGDVEEAVRAAQEAVRAAKESGDNDVLRKVAEQALRIAKEAEKQGNVEVAVKAARVAVEAAKQAGDNDVLRKVAEQALRIAKEALKQGNVDVAAKAAQVAEEAAKQAGDQDVLRKVKEVQIEIVLAAIELTVRKMGVTMETHRSGREVKVVIKGLHESQQEQLLEDVLRIAELAGVRVRIRFKGDTVTIVVRG
notes: also called LHD101B62
binds: all assays above

B2: 274A53 (designed binder)
chain: TTNFHLINGSEEARQLIEKAVRAISKKEGTEVHFEKSDGTLEIRVKNLHEKREREIKKVIELILEVAAAERIVRERPGSNLAKKALEIILRAAEELAKADVDAALEAAVRAAEKVVREQPGSNLAKKALEIILRAAEELAKLPDPEALKEAVKAAEKVVREQPGSELAKKALEIIERAAEELKKSPDPEAQKEAKKAEQKVREESGSHHWGSGLNDIFEAQKIEWHEGSHHHHHH
notes: also called LHD274A DHR53 stop; LHD274A53
binds: all assays above
